In data set [1] the target is GB1-SRSF1ΔRS (UniProt Q07955 1-197, del198-248). As to the kind of experiment: ITC; 27 C; NMR buffer with TCEP; NMR/ITC: 10 mM NaPO4 pH 7.0, 50 mM L-Arg, 50 mM L-Glu, 5 mM DTT (TCEP for ITC); NMR 313 K (FUS 30 C), ITC 27 C; single-molecule: 50% nuclear extract, 3.2 mM MgCl2, 50 mM K-glutamate, 20 mM HEPES pH 7.5, 1.5 mM ATP, 30 C. As to conditions: protein: recombinant; hairpin. A general note: In ITC the heat of successive injections is recorded.

The target in data set [2] is FUS RRM (UniProt P35637 285-371). As to the kind of experiment: NMR; 30 C; NMR/ITC: 10 mM NaPO4 pH 7.0, 50 mM L-Arg, 50 mM L-Glu, 5 mM DTT (TCEP for ITC); NMR 313 K (FUS 30 C), ITC 27 C; single-molecule: 50% nuclear extract, 3.2 mM MgCl2, 50 mM K-glutamate, 20 mM HEPES pH 7.5, 1.5 mM ATP, 30 C. As to conditions: protein: recombinant; hairpin.
FUS RRM, sequence (P35637 285-371): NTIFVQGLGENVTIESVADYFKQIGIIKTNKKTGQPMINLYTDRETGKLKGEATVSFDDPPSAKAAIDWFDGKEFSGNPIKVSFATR

GB1-SRSF1ΔRS, sequence (Q07955 1-197, stated change not applied): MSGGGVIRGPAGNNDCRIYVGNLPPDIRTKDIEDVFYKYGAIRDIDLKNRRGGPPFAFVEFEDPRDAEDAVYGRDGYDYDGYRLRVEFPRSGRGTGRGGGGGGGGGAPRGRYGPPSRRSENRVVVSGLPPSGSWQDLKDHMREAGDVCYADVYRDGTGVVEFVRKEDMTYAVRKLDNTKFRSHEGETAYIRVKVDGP

Regarding GCGAUUUCCCCAAAUGUGGGAAACUCGC (structured_RNA) [U1 snRNA stem-loop 3 (SL3) wild type], the Kd (commonly the equilibrium constant for the complex coming apart) in data set [1] stood at 10.9 ± 2.8 µM. Besides, the binding result in data set [2] is “binds”.

These data come from publication PMC8724738, “Exon‐independent recruitment of SRSF1 is mediated by U1 snRNP stem‐loop 3”.
